Assay results taken from the supplement of paper PMC12764529.
± gives the half width of the 95% confidence interval.

Assays:
[1] = folding stability dG unfold from trypsin proteolysis; higher = more stable
How it was run: (§1)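 Unfolding free energy was derived, per protease or combined, against a sequence-predicted unfolded-state K50 and a shared folded-state K50, starting from K50 inferred by Bayesian fitting of sequencing counts. Digestion with trypsin and chymotrypsin was carried out on designed mini-proteins under 80 residues without cysteine in a PA-tagged cDNA display construct. Only designs with AlphaFold2 dimer inter-PAE above 15 were kept.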

[2] = folding stability dG unfold from chymotrypsin proteolysis; higher = more stable
How it was run: as §1

[3] = folding stability dG unfold (combined trypsin and chymotrypsin); higher = more stable
How it was run: as §1

Row | Sequence | folding stability dG unfold [1] [kcal/mol] | folding stability dG unfold [2] [kcal/mol] | folding stability dG unfold [3] [kcal/mol]
1 | SAGGSAGGSAMLLPSEEEAEKAAAELRAKTGWRVTVEKVGTGEDGTVVYRLTVVPPDLPLESAGGSAGGSAG [r3_59_JUSTAS] | 2.84 ± 0.048 | 3.234 ± 0.019 | 3.12 ± 0.06
2 | SAGKPGEPIKLKIRYVDPDNGEPQTFEFPIKRIEDVEIDPPGNIIITFPGDGQEITFPPNHLTEVEILSAGG [r19_416_TrROS] | -0.852 ± 0.73 | 0.36 ± 0.24 | 0.0637 ± 0.18
3 | SAGGSAGGSAGGSSTILIPSSTSEEYAESLAKELKKKGNVKTSFDPSTGVLVLTLPGGSSSAGGSAGGSAGG [r7_219_JUSTAS] | -0.962 ± 0.59 | 0.0516 ± 0.2 | -0.17 ± 0.21
4 | SAGGSAGGSAPYFVRIKIENPDNGKPHSIEIPPNMTPEQAKEMAEELAEMHGWKITDVEYFPSAGGSAGGSA [r18_322_TrROS] | 0.227 ± 0.088 | 0.433 ± 0.11 | 0.371 ± 0.068
5 | SAGLFITVEANPNNGTMRITLYRMEPRKDGDGPKMDIEPIAEIEVPMESPEEARDKAKDKAKNLLDKFNSAG [r5_956_TrROS] | 1.06 ± 0.064 | 1.85 ± 0.14 | 1.58 ± 0.11
6 | SAGGSAMTLEFKILFPNKTKEEAIKAIEEIPEEIKKNIKKIEILKIDPVGDEVIATLKIEVDPEFLSAGGSA [r15_244_TrMRF] | 0.723 ± 0.18 | 1.86 ± 0.24 | 1.37 ± 0.29
7 | SAGGSAGGRRIYLPDFGAGGSGLVKAAEIAAAFEEEGYVASVSFSTSPFGPSVLVVDVASPSELSAGGSAGG [r6_597_TrMRF] | -0.606 ± 0.17 | -0.0496 ± 0.13 | -0.171 ± 0.14
8 | SAGMEEVEITIKITIEVPEGEEVTPEELAEALREAGFEIVEVKVEKTEDGRKRVTVEIKIRLTPEELEKSAG [r5_167_TrROS_Hall] | 2.31 ± 0.2 | 2.02 ± 0.15 | 2.23 ± 0.19
9 | SAGGSAGGSAGKKVTLKVLVKNENGKLYMFEAEYEFDENGKLVKVKVKVYEVEVKDLKLPSAGGSAGGSAGG [r11_1019_TrROS_Hall] | 2.66 ± 0.13 | 3.02 ± 0.039 | 2.86 ± 0.16
10 | SAGGSAGGSAGGMPIKVEEYELPNGEKILKEISPEGVVKVYKVDPVNGKKEVIEVIPINKSAGGSAGGSAGG [r7_898_JUSTAS] | 0.446 ± 0.094 | 1.1 ± 0.073 | 1.01 ± 0.19
11 | SAGGPENARPVTFTVTLPDGDVVPITVTEHPDGTVTVTVTVLRFDGAEPVPATATITVPAEVVRRLFSAGGS [r16_470_TrMRF] | 2.15 ± 0.035 | 2.636 ± 0.023 | 2.48 ± 0.034
12 | SAGKSVKLSISVNPDNNSITITLEVEFKPDEKINIPAKFYLKDKEFNANYSVTKTPDGKAIATFTIELDSAG [r5_596_TrMRF] | 2.67 ± 0.27 | 4.57 ± 0.23 | 3.63 ± 0.38
13 | SAGGSAGGSAGGDNWKIGIDIIPIRFTFEMTMKDGGKPRPMRMEFEVTIIVIKITPPGDSAGGSAGGSAGGS [r10_118_TrROS] | 3.5 ± 0.1 | 5.1 ± 0.079 | 4.89 ± 0.11
14 | SAGGSAGGSAKYKPIGELEFEFENGIRLRVTFYEGEGEKIAIVEIEIPEPSLEEAIKILESSAGGSAGGSAG [r3_158_TrMRF] | 2.14 ± 0.095 | 2.79 ± 0.037 | 2.56 ± 0.09
15 | SAGGSADIPSDWTVTPVSSSYDPATGTTTTEETVYDSKGNPQYKITVTTTFDPTTGTTTTTVTYNPSAGGSA [r15_1028_JUSTAS] | 2.37 ± 0.066 | 2.054 ± 0.018 | 2.17 ± 0.058
16 | SALPPEVVRKLALDALRALYPDEPFVPVSMEVDPETGEVTVLVARPGPDDSLRLVRRTFRVLDDGRVLGSAG [r14_183_TrMRF] | 2.8 ± 0.067 | 3.07 ± 0.071 | 2.98 ± 0.062
17 | SAGGSAGGSAGMEEIEIKFPENGKPLEIYRVPDGSAIIRNPGDGHYFQMDGNKIEIVGPLSAGGSAGGSAGG [r17_476_TrROS] | 0.861 ± 0.048 | 0.353 ± 0.13 | 0.703 ± 0.18
18 | SAGGSAGGSAGKPIPYRITLETETTRAVFTIPADVPLEKVVEIAREIRELYPAPFSIEPSSAGGSAGGSAGG [r11_515_TrMRF] | 0.14 ± 0.21 | -0.00667 ± 0.43 | 0.197 ± 0.21
19 | SAGGSAGGSAGSLTLVSTSSDETEEPVVRYREVYAGPVPVRVTAEESLENPGNPRLRVVLSAGGSAGGSAGG [r11_618_JUSTAS] | -0.53 ± 0.22 | -0.275 ± 0.39 | -0.251 ± 0.14
20 | SAGGSAGGSAGMIVFTLPDGGLALVLNIEYELEPDEDGNLIIRPRISLSIFPVPADFPILSAGGSAGGSAGG [r17_480_TrMRF] | 3.2 ± 0.09 | 4.51 ± 0.068 | 4.19 ± 0.12
21 | SAGGSAGGSAGSTITIRINGKTYTIEVDESEEEALERIRELARALLPEGEVEVTVERREPSAGGSAGGSAGG [r11_1028_TrROS_Hall] | 2.2 ± 0.047 | 3.374 ± 0.026 | 2.98 ± 0.079
